The nanobody polyreactivity screen of Harvey et al. (2022)

Experiment: yeast display, Sf9 membrane polyspecificity reagent, FACS + sequencing; frameworks hold sequencing errors
How it was run: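 Galactose-induced (36–48 hours) yeast carrying a synthetic nanobody display library were exposed to 10% biotinylated, detergent-solubilized Sf9 membrane reagent at 4 °C for 1 hour. FACS followed streptavidin microbead enrichment, using low and high (top ~1%) gates for expression (anti-HA) and reagent binding (streptavidin). Colony PCR, MiSeq 2 × 250 sequencing and CDR-length filtering followed. Labels for polyreactivity reflect the gate of origin.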

Sequence | polyreactivity (PSR sort gate)
QVQLVESGGVLVQAGGSLRLSCAASGRIFSIYGMGWYRQAPVKEREFVASITYSGGSTYNADSVKGRFTISRDTAKNTVYLQMKSLKPEDTAVYYCAKYVFSAYDYWGQGTQVTVSS | low polyreactivity
QVQLVESGGGLVQAGGSLRLSCAASGFTLGDNAMGWSRQAPGKERELVAAISGGGSSTYYADSVKGRFTISRDNAKNTVYLQMNSLKPEDTAVYYCAADYYFSTYYSRYYFWGQGTQVTVSS | low polyreactivity
QVQLVESGGGLVQAGGSLRLSCAASGFILRNNAMGWSRQAPGKEREFVAAISSGTRTNYADSVKGRFTISSDNAKNTVYLQMNSLKPEDTAVYYCDAYPTRYYVGYDYWGQGTQVTVSS | high polyreactivity
QVHLVESGGGIVQAGGSLRLSCAASGFTFTQYGMGWYRQAPGKEREFVATIRFSGDNTYYADSVKGRFTISRDNAKNTVYLQMNSLNPEDTAVYYCNADNRAFFVYPVSKRYDYWGQGTQVTVSS | low polyreactivity
QVQLVESGGGLVQAGGSLRLSCAASGSINYYAMGWYRQAPVKERELVAAITRSGGGTYYADSVKGRFTISRDNAMNTVYLQMNSLIPEDTAVYYCAAARYSRAQPNWTYNYWGQGTQVTVSS | high polyreactivity
QVQLVESGGGLVQAGGSLRLSCAASGRNFFANAMGWYRQAPGKERELVASITRRSGGTYYADSVKGRFTISRDNAKNTVYLQMISLKPEDTAVYYCAARYTFPKDLYYYWGQGTQVTVSS | high polyreactivity
QVQLVESWGGLVQAGGSLRLSCAASGSTFYRYAMGWSRQAPGKERELVAAINTGGSTNYADSVKGRFTISRDNAKNTVYLQMNSLKPEDTAVYYCAARFQYYRKYDYWGQGTQVTVSS | low polyreactivity
QVQLQESGGGLVQAGGSLRLSCAASSNNSTLDDMCWYRQAPGKEREFVASIGSGGITNYADSVKGRFTISRDNAKNTVYLQMNSLKPEDTAVYYCAVLNQAYTDLIYWGQGTQVTVSS | high polyreactivity
QVQLVESGGGLVQAGGSLRLSCAASGFIFAYNAMGWYRQAPGKERELDAAISRSGGSTRYADSVKGRFTISRDNAKNTVYLQMNSLKPEDTAVYYCNVSRYGYGVGRGLYIYDYWGQGTQVTVSS | high polyreactivity
QVQLVESGGGLVQAGGSLRLSCAASGRIFYKYAKGWYRQAPGKERELVAAITTSGGSTYYADSVKGRFTISRDNAKNTVYLQMKSLKPEDTAVYYCARDLNGRFLTTGRGMDYWGQGTQVTVSS | high polyreactivity
QGQLVESGGGLVQAGGSLRLSCAASGSTYPNNTMGWYREAPGKEWEFVAAITGDGGTTYYADSVKGRFTISRDNAKNTVYLQMNSLKPEDSAVYYCAVPYPAEGYGVDYWGQGTQVTVSS | low polyreactivity
QVQLVESGGGLVQAGGSLRLSCAASGFTFRSNVMGWSRQAPGKERELVAGITQRGGRTYYADSEKGRFTISRDNAKNTVYLQMNSLKPEDTAVYYCAADRSEYDYWGQGTQVTVSS | high polyreactivity
QVQLVESGGGLVQAGGSLRLSCAASGRTFVSNAMGWYRQAPGKERELVAVITGIGGNTYYADSVKGRFTISRDNAKTTVYLQMYSLKPEDTAVYYCAADQIYSFYPVYGSWIYSMYYWGQGTQVTVSS | low polyreactivity
QVQLVESGGGLVQAGGSLRLSCAASGFTFRKKAMGWYRQAPGKERELVAAIRGSAGSTYYADSVKGRFTNSRDNAKITVYLQMNSLQQEDTAVYYCATGGYPSLWYGYGYWGQGTQVTVSS | low polyreactivity
QVQLVESGGGLVQAGGSLRLSCAASGLTFKANAMGWYRQAPGKERELVAAITWSGTSTYYADSVKGRFTISRDNAKNTVYLQMNSLKPEDTAVYYCNKPYDVWYHDYDYWGQGTQVTVSS | low polyreactivity
QVQLVESGGGLVQAGGSLRLICAASGSIFRLYAMGWYRQAPGKERELVAAIRWSGGRTYYADSVKGRFTISRDNAKNTVYLQMNSLKPEDTAVYYCAADYYLPAYPPQTFGYWGQGTQVTVSS | high polyreactivity
QVQLVESGGGLVQAGGSLRLICAASGSTIGSYVMGWYRTAPGKERELVAAITSGARTNYADSVKGRFTISRDNAKNTVYLQMNSLKPEDTAVYYCAKYYRPAYVYRIAGYYWGQGTQVTVSS | high polyreactivity
QVQLVESGVGLDQAGGSLRLSCAASGSIFIINAMGLYRQAPGKERELVARISNGGNTYADSVKGRFTISRDNAKNTVYLQMKSLKPEDTAVYYCAARAYARRPKYVPKFDYWGQGTQVTVSS | high polyreactivity
QVQLVESGGGLVQAGGSLRLSCAASGRTFQYYTMGWYRQAPGKERELVAAITWRGGTTYYADSVKGRFTISRDNAKNTVYLQMNSLKPEDTAVYYCAAYSPDYGFDYWGQGTQVTVSS | high polyreactivity
QVQLVESGGGLVQAGGSLRLSCAASGRIFDKYTMGWYRQAPWKERELVPAISKSGSGTFYADSVKGRFTISRDNAKNTVYLQMNSLKPEDTAVYYCARVYTVGSGRSWRLDYWGQGTQVTVSS | high polyreactivity
QVQLVESGGGLVQAGGSLRLSCAASGSIFRAYALGWYRQAPGEERELVAAISWRAGRTYYADSVKGRFTISRDNAKNTVYLQMNSLKPEDTAVYYCAARKRAQQGTRDHDYWGQGTQVTVSS | high polyreactivity
QVQLVESGGGLVQAGGSLRLSCAASGRTFIGYAMGWYRQAPGKERELVATISVSGGSTYYADSVKGRFTISRDNAKNTVYLQMNSLKPEDTAVYYCAKAYLRFYDGPYDYWGQGTQVTVSS | low polyreactivity

Sequence | polyreactivity (PSR sort gate)
QVQLVDSGGGLVQAGGSLRLSCAASGRIFELYAMGWNTQATGKDRELVAVITNGGSTYYADSVKGRFTISRDNAKNTVYLQLNSLKPEDTAVYYCNGRRGYNRVGGSYGYWGQGTQVTVSS | low polyreactivity
QVQLVESGGGLVQAGGSLRLSCAASGRIFIKNAMGWYRQAPGKERELVAAISSGSSTYYADSVKGRFTISRDNAKNTVYLQMNSLKPEDTAVYLYGSWGQGTQVTVSS | low polyreactivity
HVQLVESGGGLVQAGGSLRLSCAASGRIFLIYAMGWYRQAPGKEWELFAAIRSGGSTNYADSVKGRFTISRDNAKNTVYLLMNSLNPEDTAVYYCAVRSRVYPSRVKYDYWGQGTQVTVSS | high polyreactivity
QVQLVESGGGLVQAGGSLRLSCAASGSIFDVNAMGWYRQAPGKERELVAAISQRGTRTYYADSVKGRFTISRDNAKNTVYLQMNSLKAEDTAVYYCNRGGWRQYDSWGQGTQVTVSS | high polyreactivity
QVQLVESWGGLVQAGGSLRLSCAASGFTFNANAMGWYRQAPGKERELVAAISLSGGRTYYADSVKGRFTISRDNEKNTVYLQMNSLKPVDTAVYYCAASPDGSFRRFSRVVSGDYWGQGTQVTVSS | high polyreactivity
QVQLVESGGGLVQAGGSLRLSCAASGRTFYYYAMGWYRQAPCKERELVSAITTDGGNTYYADSVKGRFTISRDNAKNTVYLQMNSLKPEDTAVYYCATDGYEYTDYGSSGYDYWGQGTQVTVSS | low polyreactivity
QVQLVESGGGLVQAGGSLRLSCAASGSTFYGYGMGWYRQAPGKERELVAAITGSGDTTYYADSVKGRFTISRDNAKNTVYLQMNSLKPEDTAVYYCNARWLAEYDYWGQGTQVTVSS | low polyreactivity
QVQLVESGGGLVQAGGSRRLSCAASGSTFAYYAMGWYRQAPGKERELVAAISWRGGSTYYADSVKGRFTISRDNAKNTVYLQMNSLKPEDTAVYYCATLSAWKASSYDYWGQGTQVTVSS | high polyreactivity
QVQLVESGGGLVQAGGSLRLSCAASGRILASNVMGWYRQAPGKEREFVASITYSGSSTYYADSVKGRFTISRDNAKNTVYLQMNSLKPEDTAVYYCATRYGYSDGDYWGQGTQVTVSS | low polyreactivity
QVQLVESGGGLVQAGGSLRLSCAASGFIFTRYAMGWYRQAPGKERELVAAISGTGGSTYYADSVKGRFTISRDNSKNTFFLQMNSLKPEDTAVYYCAAGYFVYLKYGYWGQGTKVTVSS | high polyreactivity
QVQLVESGGGLVQAGGSLRLSCAASGFTFGRYAMGWYRQAPGKERELVAGITWSGGSTSYADSVKGRFTISRDNAKNTVYLQMNSLKPEDTAVYYCATRARYTRVHGRRYAYDYWGQGTQVTVSS | high polyreactivity
QVQLVESGGGLVQAGGSLRLSCAASGSIFPIYAMGWYRQAPGKERELVAGIRGRGGRTYYADSVKGRFTISRDNAKNTVYLQMNSLKPEDTAVYYCAKANLTPQGRGDYDYWGQGTQVTVSS | high polyreactivity
QVQLVESGGGLVQAGGSLRLSCAASGNIFYLNTMGWYRQAPGKERELVASITRSTGSTYYADSVKGRFTISRDNAKNTVYLQMNSLKPEDTAVYYCAADWSLNKTPRLKGYTFRDDYWGQGTQVTVTS | low polyreactivity
QVQLVESGGGLVQAGGSLRLSCAASGNTFYLYAMGWYRKAPGKERELVASITGGTRTNYADSVKGRFTISRDNAKNTVYLQMNSLKPEDTAVYYCAVRYYWRRMNYWGQGTQVTVSS | high polyreactivity
QVQLVESGGGLVQAGGSLRLSCAASRYIFVRYAMGWYRQAPGKERELVAPNNSSGGRTYYAHSVKGRFTISRDNAKNTVYLQMNSLKQEDTAVYYCAAYGYYRSGYRALEGYWGQGTQVTVSS | high polyreactivity
QDQLVESGGGLVQAGGILRLSSSASGFTFAYYAMGWYRQSTGKERQLVAAISSRGGSTYYADTVKGRFSISRDNAKNTVYLQMNILKPEDTAVYYCAAEFGLWPYEYGYCGQGTQVTVSS | high polyreactivity
QVQLVESGGGLVQAGGSLRLSCAASGSIFEYNAMGWYRQAPGKERELVAAISRSGGSTYYADSVKGRFTISRDNAKNTVYLQMISLKPEDTAVYYCAARSPRYYRDFGYWGQGTQVTVSS | high polyreactivity
QVQLVESGGGLVQAGGSLRLSCASSGLIFPYNAMGWYRKAPGKERELVAAIDSGVTTYYADSVKGRFTISRDNAKNTVYLQMNSLKPEDTAVYYCAAVGLPGPEGDSWGQGTQVTVSS | low polyreactivity
QVQLVESGGGLVQAGGSLRLSCAASGSTFYTYAMGWYRQAPGKERELVAAIRGRGGRTYYADSVKGRFTISRDNAKNTVYLQMNSLKPEDTSVYYCNADGYAYYRATTRFDYWGQGTQVTVSS | high polyreactivity
QVQLVESGGGLVQAGGSLRLSCAASGLTFWPNAMGWYRQAPGKERELVAAISYTGGITYYADSVKGRFTISRDNAKNTDYLQMNSLKPEDTAVYSCNKGRRGYYSVRRYDYWGQGTQVTVSS | low polyreactivity
QVQLVESGGGLDQAGGSLRLSCAASGSTFYKYAMGWYRQAPGNERDLVAGISSSGGNTYYADSVKGRFTISRDNAKNTDYLQMNSLKPEDTAVYYCAARPRYLKEYDYWGQGTQVSVSS | high polyreactivity
